Series [1] has as its system Candida albicans. The series can be described thus: Dose-response growth assay in 96 well plates, C. albicans in RPMI-MOPS (also zinc and pH variation). The class given is cell-based. The protocol: C. albicans were seeded on 10 cm plates of YAG-agarose for 1-2 days in a humidified incubator at 30° C. C. albicans colonies were used for 48 hours after their appearance before disposal.
RPMI-MOPS (RPMI Powder, 165 mM MOPS, and Pen/Strep solution (x100)) was inoculated with either 50,000 spores/ml of A. flavus, or 1 colony/10 ml of C. albicans. The inoculated RPMI-MOPS was poured into a Nunclone™ coated 96-well plate (100 μl per well), with the different treatments and controls. The 96-well plate was then incubated in a shaker/incubator plate-reader at 30° C. where the absorbance (600 nm) was monitored and measured every 10 minutes.
In Example 4, several ZnCl2 concentrations were added to 1 μM of His-psoriasin.
In Example 5, RPMI-MOPS was titrated to the different pH levels using 1M NaOH solution (RMPI-MOPS, initial pH ~4).
In order to evaluate the ability of recombinant His-psoriasin to inhibit the growth of Candida albicans, a single colony/10 ml was incubated in a RPMI-MOPS medium with variable concentrations of psoriasin added to each well. Fungi growth was monitored using an absorbance plate reader every 10 minutes at 600 nm. No apparent growth was measured in psoriasin concentrations higher than 300 nM for C. albicans (FIG. 2).
In order to test the effect of zinc ions on the ability of psoriasin to inhibit fungal growth, Candida albicans was incubated in a RPMI-MOPS medium in the presence of 1 μM psoriasin with variable concentrations of ZnCl2.
Candida albicans was incubated in a RPMI-MOPS medium in the presence of 10 μM His-psoriasin at variable pHs. […] Accordingly, effective anti-fungal activity of His-psoriasin can be obtained also at pH levels that are lower than pH=8.

The subject of series [2] is microbial load of plant-based ground meat (soy protein). Briefly: Microbial load of plant-based ground meat (soy protein) with psoriasin and/or nisin. The settings on record: 0.65% w/w His-psoriasin; 1.5 mg nisin; 5 g soy protein in 7.5 ml PBS. The class given is cell-based. As for the experimental part:
The ability of psoriasin to inhibit bacterial and fungal growth, with and without nisin was evaluated. Commercial plant-based ground meat (soy protein) was divided into 4 groups, each containing 5 grams of soy protein. The sample designated as “non-treated” contained 5 g of soy protein in 7.5 ml of PBS×1. The sample designated as “psoriasin” contained 5 g of soy protein in 7.5 ml of PBS×1 with 0.65% w/w of His-psoriasin. The sample designated as “nisin” contained 5 g of soy protein in 7.5 ml PBS×1 with 1.5 mg of nisin. The combined treatment group (“psoriasin+nisin”) contained 5 g of soy protein with both his-psoriasin and nisin at the same concentrations. The samples were incubated in […], and the microbial load was evaluated by seeding the different test groups on LB-agarose plates containing no antibiotics or on YAG-agarose plates with the antibiotics.

In series [3] the test system is microbial load of hummus salad. The series can be described thus: Shelf life of hummus salad at pH 4.8. Type of series: cell-based. Conditions: pH 4.8, stored at 6° C, psoriasin 0.2%. As for the experimental part: The ability of psoriasin to extend the shelf life of a hummus salad preparation was examined. A commercially-available preparation that is acidified at pH 4.8 and to which 0.2% potassium sorbate was added in order to ensure food safety was compared to a hummus salad at the same pH with and without the addition of psoriasin at the same concentration. No antibiotics were added and there was no addition of mold, yeast or bacteria to the preparation.
Samples were stored at 6° C. and total CFU counts were performed on days 0, 12, 26, and 62 by plating on LB and PDA agar petri dishes. Photos (i.e., visual inspection) were taken every 7 days. As is evident from FIG. 14A, psoriasin extended the shelf life of the hummus salad at pH 4.8 by 2 months.

Series [4] relates to microbial load of hummus spread. Briefly: Shelf life of canned hummus spread at natural pH 6.5. The class given is cell-based. Conditions: pH 6.5, stored at 6° C in an open container. The protocol: In a further related example, the ability of psoriasin to extend the shelf life of a canned hummus spread preparation was compared with that of nisin, a commonly used preservative at pH 6.5, the natural pH of the preparation. As described above, no antibiotics were added and there was no addition of mold, yeast or bacteria to the hummus spread. The hummus spread was split into 3 groups: i) untreated, ii) nisin-treated, and iii) psoriasin-treated. The hummus spread was stored at 6° C. in an open container. Total CFU count was determined by plating on LB and PDA agar petri dishes.

Series [5] deals with Candida albicans. The series can be described thus: Microbial Growth Inhibition Test, broth microdilution optical method. Conditions: RPMI-MOPS. Type of series: cell-based. As for the experimental part: (§1) The IC90 of psoriasin for several microorganisms was determined by Microbial Growth Inhibition Tests. The tests were performed using the Broth Microdilution Optical Method based on standardized protocols M27 (yeasts) and M38 (filamentous fungi) of the Clinical and Laboratory Standards Institute. […] MOPS, LB (Luria-Bertani), and TSB ([…]) medium types were used, depending on the species being tested. The absorbance was calibrated to each species, and was measured between 450 nm to 650 nm.
A general note: Broth dilution looks for growth in wells or tubes with falling amounts of substance.

A further series has as its system Enterobacter cloacae. The series is described as above. Type of series: cell-based. The settings on record: TSB. The protocol: as §1
In a further series the test system is Escherichia coli. The description is as above. The class given is cell-based. Conditions: LB, TSB. As for the experimental part: as §1
For the next series, the system named is Lactobacillus saeki. The series is described as above. The settings on record: TSB. The class given is cell-based. The protocol:
as §1

A further series relates to Lactococcus lactis. Described as above. The class given is cell-based. Conditions: TSB. The protocol:
as §1

The next series deals with Listeria monocytogenes. Described as above. Type of series: cell-based. The settings on record: LB, TSB. As for the experimental part: as §1
For a further series, the system named is 3T3 cells. Briefly: Cell viability assay based on luminescence (cell-titer kit). The settings on record: 2-74 μM, 24 h. As for the experimental part:
To assess any potential deleterious effects of psoriasin, such as cytotoxicity, a cell viability assay was performed based on luminescence, in which decreased luminescence is indicative of reduced cell viability. Various concentrations of psoriasin ranging from 2-74 μM, were tested on 3T3 cells. Approximately 5000 cells were plated in each well of a 96 well-plate and following overnight incubation, psoriasin was added in the indicated concentration within the medium to the cells (performed in triplicate). Luminescence values were recorded after an additional 24 h using the cell-titer kit (Promega Ltd.) in a BioTek Synergy plate reader.

B1: psoriasin: Recombinant human psoriasin (S100a7) containing a histidine tag, amino acid sequence SEQ ID NO: 11, expression vector pET-28a (protein, listed as Homo sapiens)
chain: MSNTQAERSIIGMIDMFHKYTRRDDKIEKPSLLTMMKENFPNFLSACDKKGTNYLADVFEKKDKNEDKKIDFSEFLSLLGDIATDYHKQSHGAAPCSGGSQ
In general, IC90 refers to the point of the concentration-response curve where the effect stands at 90%. Read a high IC90 as weaker potency. With B1, the “C. albicans proliferation at variable pHs” value with Candida albicans [1] (10 μM His-psoriasin, RPMI-MOPS) is “prevent C. albicans proliferation at all the tested pH levels”. In addition, the “psoriasin concentration above which no apparent growth was measured” value in the series with Candida albicans [1] (C. albicans single colony/10 ml, RPMI-MOPS, absorbance 600 nm) is “higher than 300 nM”. Besides, in the series with Candida albicans [1] (in the presence of 1 μM psoriasin), the “ZnCl2 concentration above which the fungi retained their full ability to grow” value is reported as “above 1.2 μM”. In series [2], the “total microbial count on LB-agarose plates containing no antibiotics” value is listed as “inhibited microbial growth”. In addition, the “total yeast/mold count on YAG plates with antibiotics” value in series [2] is listed as “inhibited fungal/yeast growth”. The “extension of shelf life of hummus salad” value in [3] was 2 months. In addition, the “time without microbial growth in hummus spread” value in [4] is “over 32 days”. Further, the 90% effect concentration (IC90) in the series with Candida albicans [5] came out at 0.5 µM; with Enterobacter cloacae, 28 µM; in the series with Escherichia coli it was 100 µM; in the series on Lactobacillus saeki, 50 µM; in the series on Lactococcus lactis, 45 µM; with Listeria monocytogenes it was 75 µM. Moreover, the “cell viability (luminescence)” value with 3T3 cells was “No change in luminescence was detected”.
